Laboratory results reported in paper PMC3688800.

What was measured:
[1] = molecular target: human Factor Xa (human); experiment: enzyme inhibition assay; chromogenic or fluorogenic substrates in 96-well plates at 37°C; enzyme pre-incubated with CrataBL for 10 min; apparent Ki (Kiapp) by fit to the equation for slow-tight binding; buffer specific for each enzyme (trypsin 40 nM in 0.1 M Tris-HCl pH 8.0 with CaCl2; Factor Xa 21 nM in 0.02 M Tris-HCl pH 7.4, 0.14 M NaCl, 5.0 mM CaCl2, 0.1% BSA)
[2] = molecular target: bovine trypsin (bovine); experiment: as above
[3] = molecular target: Crataeva tapia bark protein (CrataBL) (Crataeva tapia) (UniProt U3KRG0); experiment: SEC; Superdex 75 equilibrated in 0.15 M NaCl; at the concentration used in the crystallization trials

Crataeva tapia bark protein (CrataBL) (from UniProt U3KRG0 1-165) (natural protein)
Ki [1]: 8.6 µM | Ki [2]: 43 µM | stoichiometry N [3]: 2
